Test results: patent US20180030119A1

Columns and labels:
Test in all cases: cell-based or functional assay
[1] = molecular target: 26 RSV/B isolates (F protein on virus)
[2] = molecular target: 42 RSV/A isolates (F protein on virus)
[3] = substrate: F protein of palivizumab-resistant clinical RSV isolate #20, on virus (RSV clinical isolate #20), P11209

B1: AR201 (antibody, V domains shown)
VH: LVQLRESGPGLVKPSQTLSLTCSVSGASINLYDYFWGWIRQAPGRGPEWIGYISGSTYYNPSLKRRATISVDTSKSQFFLELTSVTAADTAVYYCARDVGWGPQYYYGLDVWGQGTTVTVSS
VL: DLVLTQSPGTLSLSPGERATLSCRASHSVQSTSLAWYQQKRGQAPRLLIYGGSSRVTGIPDRFSGSGSGTDFTLTISRLEPEDFAVYYCQQSDRSPPITFGQGTRLEMK
B1 showed a Log10 PFU/0.2 mL after 20 ug/ml antibody, plaque reduction assay on HEp-2 cells, mean (Log10 PFU/0.2 mL) [1] of -0.52, a Log10 PFU/0.2 mL after 20 ug/ml antibody, plaque reduction assay on HEp-2 cells, median (Log10 PFU/0.2 mL) [1] of -0.6 and a Log10 PFU/0.2 mL after 20 ug/ml antibody, plaque reduction assay on HEp-2 cells, mean (Log10 PFU/0.2 mL) [2] of -0.42. For the same binder, the Log10 PFU/0.2 mL after 20 ug/ml antibody, plaque reduction assay on HEp-2 cells, median (Log10 PFU/0.2 mL) [2] was -0.6 and the IC50 of neutralisation, infectivity assay on Hep2 cells [3] was 1.71 µM.
